Reference: the RNAGym collection of RNA variant scans (doi:10.1021/acssynbio.7b00057)

B1: Pistol ribozyme (parent)
chain: GGGUCGUUGUUCCAUAAUCGCGUGGAUAUGGCACGCAAGUUUCUACCGGGCACCGUAAAUGUCCGACUGGAGCCGUUCGGGCGGCUAUAAACAGACCUCAGGCCCGAAGCGUGGCGGCACCUGCCGCCGGUGGUAAAAAAGAUCGGAAGAGCACACGUCU

Variants of: B1
Assay: aptazyme ON/OFF ratio, guanine; higher = stronger switching; co-transcriptional cleavage with and without guanine

Variant | aptazyme ON/OFF ratio
U7C U8G G9C U10C C12A C13U | 1.06
U7C U8G G9C U10C C12A C13A | 1.06
U7C U8G G9C U10C C12A C13G | 1.1
U7C U8G G9A U10G U11G C12U C13A | 1.42
U7C U8G G9A U10G U11G C12U C13G | 1.25
U7C U8G G9A U10G U11G C12U C13U | 1.22
U7C U8G G9A U11A C13A | 1.2
U7C U8G G9A U11A C13U | 1.19
U7C U8G G9A U11A C13G | 1.07
U7C U8G G9C U10C C12A | 1.07
U7C U8G G9C U10C C12U | 1.27
U7C U8G G9C U10C C12G | 1.08
U7C U8G G9A U10G U11G C12G C13G | 1.03
U7C U8G G9A U10G U11G C12G C13U | 1.24
U7C U8G G9C U10C U11A C12G | 1.07
U7C U8G G9C U10C U11A C12A | 1.08
U7C U8G G9C U10C U11A C12U | 1.09
U7C U8G G9C U10C U11A C12A C13U | 1.09
U7C U8G G9C U10C U11A C12A C13A | 1.08
U7C U8G G9C U10C U11A C12A C13G | 1.06
U7C U8G G9C C13U | 1.04

Variant | aptazyme ON/OFF ratio
U7C U8G G9C C13G | 1.04
U7C U8G G9C C13A | 1.06
U7C U8G G9C U10C C13G | 1.08
U7C U8G G9C U10C C13A | 1.06
U7C U8G G9C U10C C13U | 1.71
U7C U8G G9A U11A C12U C13A | 1.19
U7C U8G G9A U11A C12U C13U | 1.15
U7C U8G G9A U11A C12U C13G | 1.17
U7C U8G G9A U11G C12G C13G | 1.27
U7C U8G G9A U11G C12G C13A | 1.16
U7C U8G G9A U11G C12G C13U | 1.18
U7C U8G G9C C12G C13G | 1.12
U7C U8G G9C C12G C13A | 1.27
U7C U8G G9C C12G C13U | 1.18
U7C U8G G9A U11C C12A C13U | 1.14
U7C U8G G9A U11C C12A C13G | 1.12
U7C U8G G9A U11C C12A C13A | 1.1
U7C U8G G9A U10G U11G C13A | 1.2
U7C U8G G9A U10G U11G C13U | 1.19
U7C U8G G9A U10G U11G C13G | 1.39
U7C U8G G9A U11G C12G | 1.23

Variant | aptazyme ON/OFF ratio
U7C U8G G9A U11G C12U | 1.26
U7C U8G G9A U11G C12A | 1.09
U7C U8G G9C U10A C12U C13A | 1.21
U7C U8G G9C U10A C12U C13G | 1.13
U7C U8G G9C U10A C12U C13U | 1.05
U7C U8G G9C U10C U11A | 0.99
U7C U8G G9C U10A C12A C13U | 1.18
U7C U8G G9C U10A C12A C13G | 1.1
U7C U8G G9C U10A C12A C13A | 1.22
U7C U8G G9C U10A U11A C13U | 1.2
U7C U8G G9C U10A U11A C13A | 1.15
U7C U8G G9C U10A U11A C13G | 1.08
U7C U8G G9C U10A U11G C12A C13G | 1.19
U7C U8G G9C U10A U11G C12A C13U | 1.18
U7C U8G G9C U10A U11G C12A C13A | 1.08
U7C U8G G9C U10A U11C C12A | 1.19
U7C U8G G9C U10A U11C C12G | 1.15
U7C U8G G9C U10A U11C C12U | 1.05
U7C U8G G9A U11A C12G C13U | 1.08
U7C U8G G9A U11A C12G C13A | 1.12
U7C U8G G9A U11A C12G C13G | 1.11

Variant | aptazyme ON/OFF ratio
U7C U8G G9C U10A U11G C12U | 1.31
U7C U8G G9C U10A U11G C12G | 1.26
U7C U8G G9C U10A U11G C12A | 1.05
U7C U8G G9C U10A U11C C12G C13U | 1.3
U7C U8G G9C U10A U11C C12G C13A | 1.24
U7C U8G G9C U10A U11C C12G C13G | 1.24
U7C U8G G9C U10A U11A C12A C13A | 1.13
U7C U8G G9C U10A U11A C12A C13G | 1.15
U7C U8G G9C U10A U11A C12A C13U | 1.26
U7C U8G G9C U10A U11C C12A C13G | 1.11
U7C U8G G9C U10A U11C C12A C13A | 1.19
U7C U8G G9C U10A U11C C12A C13U | 1.17
U7C U8G G9A U11A | 1.18
U7C U8G G9A U11C | 1.04
U7C U8G G9A U11G | 1.18
U7C U8G G9C U10A C12G C13G | 1.2
U7C U8G G9C U10A C12G C13U | 1.19
U7C U8G G9C U10A C12G C13A | 1.2
U7C U8G G9A U11C C12U C13U | 1.09
U7C U8G G9A U11C C12U C13G | 1.15
U7C U8G G9A U11C C12U C13A | 1.09
